The text below walks through data of patent US20050282743A1, “Molecular interactions in cells” (Arbor Vita Corporation, priority 2001, published 2005).

Substitutions are numbered along the chain they refer to.

Experiment [1] addresses GST-PSD95 PDZ domains 1, 2, 3 (Homo sapiens), P78352. Put plainly: G assay competition vs 20 uM biotin-CD46 20-mer; competitor 50 uM.
Experiment [2] has the same target. Put plainly: G assay competition vs 10 uM biotin-CD95 20-mer; competitor 50 uM.
The target is the same in experiment [3]. Nature of the experiment: G assay competition vs 20 uM biotin-CLASP-2 20-mer; competitor 50 uM.
Experiment [4] shares this target. Nature of the experiment: G assay competition vs 10 uM biotin-KV1.3 20-mer; competitor 50 uM.
Experiment [5] has as its target T1, GST-PDZK1 PDZ domains 2, 3, 4, Q5T2W1.
T1 chain: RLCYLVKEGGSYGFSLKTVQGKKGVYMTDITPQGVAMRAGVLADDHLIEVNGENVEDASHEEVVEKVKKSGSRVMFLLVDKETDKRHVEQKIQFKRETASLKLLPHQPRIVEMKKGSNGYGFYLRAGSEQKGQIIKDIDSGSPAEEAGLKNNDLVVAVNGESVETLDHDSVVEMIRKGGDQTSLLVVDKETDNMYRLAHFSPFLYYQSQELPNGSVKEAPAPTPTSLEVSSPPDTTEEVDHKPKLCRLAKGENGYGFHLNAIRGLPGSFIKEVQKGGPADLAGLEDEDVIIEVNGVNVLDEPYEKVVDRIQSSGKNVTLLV
Put plainly: G' assay. Further: key of the grades not given here.

In experiment [6] the target is T2, GST-MUPP1 PDZ domain 10 (Homo sapiens (Human)), O75970.
T2 chain: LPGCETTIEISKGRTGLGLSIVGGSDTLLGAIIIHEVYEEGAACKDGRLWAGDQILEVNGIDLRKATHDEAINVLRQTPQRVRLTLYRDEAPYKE
Put plainly: G' assay. Further: key of the grades not given here.

The target in experiment [7] is T3, GST-KIAA0807(S) PDZ domain 1 (Homo sapiens (Human)), Q6P0Q8.
T3 chain: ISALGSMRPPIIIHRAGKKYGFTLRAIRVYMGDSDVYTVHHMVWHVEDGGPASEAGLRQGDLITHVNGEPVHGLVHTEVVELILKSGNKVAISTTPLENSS
Nature of the experiment: G' assay. Further: key of the grades not given here.

The target in experiment [8] is T4, GST-rat SHANK 3 PDZ domain 1 (rat), Q9JLU4.
T4 chain: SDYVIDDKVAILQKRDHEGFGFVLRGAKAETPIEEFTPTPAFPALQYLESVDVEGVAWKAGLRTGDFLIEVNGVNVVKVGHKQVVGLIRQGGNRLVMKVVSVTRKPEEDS
Nature of the experiment: G' assay. Further: key of the grades not given here.

Experiment [9] deals with T5, GST-EZRIN Binding Protein 50 PDZ domain 2 (Homo sapiens (Human)), O14745.
T5 chain: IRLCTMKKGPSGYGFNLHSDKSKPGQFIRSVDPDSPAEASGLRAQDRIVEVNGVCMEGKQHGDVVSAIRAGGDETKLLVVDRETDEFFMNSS
Nature of the experiment: G' assay. Further: key of the grades not given here.

The target in experiment [10] is T6, GST-INADL PDZ domain 8 (Homo sapiens (Human)), Q8NI35.
T6 chain: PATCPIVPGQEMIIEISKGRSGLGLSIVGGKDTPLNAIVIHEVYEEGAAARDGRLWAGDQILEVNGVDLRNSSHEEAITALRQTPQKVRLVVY
Nature of the experiment: G' assay. Further: key of the grades not given here.

Experiment [11] deals with T7, GST-FLJ 10324 PDZ domain 1 [GST: P08515].
T7 chain: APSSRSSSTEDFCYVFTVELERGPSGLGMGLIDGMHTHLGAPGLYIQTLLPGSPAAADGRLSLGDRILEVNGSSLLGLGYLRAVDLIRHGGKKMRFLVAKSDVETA
Nature of the experiment: G' assay.

The target of experiment [12] is T8, GST-Shank 1 PDZ domain 1 (Homo sapiens (Human)), Q9UPX8.
T8 chain: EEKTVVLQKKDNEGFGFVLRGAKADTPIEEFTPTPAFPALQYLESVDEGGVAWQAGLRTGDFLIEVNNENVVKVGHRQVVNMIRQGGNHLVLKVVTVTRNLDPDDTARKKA
Nature of the experiment: G' assay.

Experiment [13] concerns the target T9, GST-APXL-1 PDZ domain 1 (Homo sapiens (Human)), Q13796.
T9 chain: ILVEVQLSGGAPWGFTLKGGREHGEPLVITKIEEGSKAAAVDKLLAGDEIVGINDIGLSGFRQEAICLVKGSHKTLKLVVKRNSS
Put plainly: G' assay.

In experiment [14] the target is T10, GST-Outer Membrane PDZ domain 1 (Homo sapiens (Human)), P57105.
T10 chain: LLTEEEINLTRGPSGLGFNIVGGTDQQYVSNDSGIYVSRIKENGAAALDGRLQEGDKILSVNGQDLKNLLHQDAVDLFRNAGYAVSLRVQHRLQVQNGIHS
Nature of the experiment: G' assay.

Experiment [15] deals with GST-KIAA807 [GST: P08515]. Nature of the experiment: G' assay.
The target in experiment [16] is T11, GST-MUPP1 PDZ domain 13 (Homo sapiens (Human)), O75970.
T11 chain: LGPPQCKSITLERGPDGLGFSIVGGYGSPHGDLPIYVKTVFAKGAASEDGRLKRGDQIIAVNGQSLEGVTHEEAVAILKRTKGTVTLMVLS
Nature of the experiment: G' assay.

Experiment [17] deals with T12, GST-ZO-2 PDZ domain 1 (Homo sapiens (Human)), Q9UDY2.
T12 chain: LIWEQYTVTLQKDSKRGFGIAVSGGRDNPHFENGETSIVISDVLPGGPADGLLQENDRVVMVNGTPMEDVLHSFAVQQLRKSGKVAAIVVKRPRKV
Nature of the experiment: G' assay.

Experiment [18] deals with T13, GST-Shank 3 PDZ domain 1 (human (hypothetical, computer cloned)), Q9BYB0.
T13 chain: T4 chain with I11V, K59R, G86A, S110G
Nature of the experiment: G' assay.

In experiment [19] the target is T14, GST-EZRIN Binding Protein 50 PDZ domain 1 (Homo sapiens (Human)), O14745.
T14 chain: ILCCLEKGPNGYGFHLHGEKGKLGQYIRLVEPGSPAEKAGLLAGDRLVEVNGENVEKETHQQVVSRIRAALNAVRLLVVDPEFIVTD
Put plainly: G' assay.

In experiment [20] the target is T15, GST-MINT1 PDZ domain 2 (Mus musculus (Mouse)), B2RUJ5.
T15 chain: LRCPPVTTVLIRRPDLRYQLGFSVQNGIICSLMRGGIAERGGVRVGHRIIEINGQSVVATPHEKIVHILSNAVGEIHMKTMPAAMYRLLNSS
Nature of the experiment: G' assay.

The target in experiment [21] is GST-PIST PDZ domain 1 (Mus musculus (Mouse)), Q8BH60. Nature of the experiment: G' assay. Further: key of the grades not given here.
Experiment [22] has as its target T16, GST-Syntrophin gamma 2 PDZ domain 1 (Homo sapiens (Human)), Q9NY99.
T16 chain: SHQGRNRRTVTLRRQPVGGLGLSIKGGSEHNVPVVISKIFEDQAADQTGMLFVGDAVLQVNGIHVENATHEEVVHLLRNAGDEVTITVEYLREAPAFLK
Nature of the experiment: G' assay.

Experiment [23] addresses T17, GST-KIAA1526 PDZ domain 1 (Homo sapiens (Human)), Q9P202.
T17 chain: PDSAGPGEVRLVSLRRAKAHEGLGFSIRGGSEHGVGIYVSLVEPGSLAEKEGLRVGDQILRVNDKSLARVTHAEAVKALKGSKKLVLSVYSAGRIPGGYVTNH
Nature of the experiment: G' assay.

The target in experiment [24] is T18, GST-KIAA0973 PDZ domain 1 (Homo sapiens (Human)), Q9Y2H9.
T18 chain: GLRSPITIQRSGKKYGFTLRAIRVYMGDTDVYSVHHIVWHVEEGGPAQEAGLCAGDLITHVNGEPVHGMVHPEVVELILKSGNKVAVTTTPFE
Nature of the experiment: G' assay.

Experiment [25] deals with T19, GST-BAI-1 Associated Protein PDZ domain 3 (Homo sapiens (Human)), Q96QZ7. Put plainly: G assay titration, PDZ 0.5 ug/ml.
Experiment [26] concerns the target T20, GST-PTPL1 PDZ domain 2 (Homo sapiens (Human)), Q12923.
T20 chain: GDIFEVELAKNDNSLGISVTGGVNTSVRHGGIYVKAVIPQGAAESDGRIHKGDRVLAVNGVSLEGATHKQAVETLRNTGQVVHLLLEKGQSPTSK
Put plainly: G assay titration, PDZ 0.5 ug/ml.

For experiment [27], the target named is T19, GST-BAI-1 Associated Protein PDZ domain …. Put plainly: G' assay.
The target of experiment [28] is GST-KIAA0316 PDZ domain 1 (Homo sapiens (Human)), Q14CM0. Nature of the experiment: G' assay. Further: key of the grades not given here.
Experiment [29] addresses T21, GST-KIAA1634 PDZ domain 2 (Homo sapiens (Human)), Q5TCQ9.
T21 chain: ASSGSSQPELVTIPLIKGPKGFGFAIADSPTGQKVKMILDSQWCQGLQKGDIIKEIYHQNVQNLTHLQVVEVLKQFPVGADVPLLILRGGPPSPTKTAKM
Put plainly: G' assay.

Experiment [30] addresses T22, GST-HEMBA 1003117 PDZ domain 1 (Homo sapiens (Human)), Q96JH8.
T22 chain: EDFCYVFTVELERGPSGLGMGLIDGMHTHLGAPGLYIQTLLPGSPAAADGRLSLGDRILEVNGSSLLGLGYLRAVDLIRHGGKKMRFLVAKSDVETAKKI
Put plainly: G' assay.

For experiment [31], the target named is T20, GST-PTPL1 PDZ domain 2 (Homo sapiens …). Put plainly: G' assay.
Experiment [32] deals with T23, GST-MINT1 PDZ domains 1, 2, Q02410.
T23 chain: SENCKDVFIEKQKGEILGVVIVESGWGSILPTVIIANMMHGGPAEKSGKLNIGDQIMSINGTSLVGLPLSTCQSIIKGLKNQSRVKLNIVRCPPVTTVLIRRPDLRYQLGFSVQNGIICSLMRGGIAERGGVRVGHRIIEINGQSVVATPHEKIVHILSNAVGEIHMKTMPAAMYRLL
Put plainly: G' assay.

The target in experiment [33] is T24, GST-PTPL1 PDZ domain 4 (Homo sapiens (Human)), Q12923.
T24 chain: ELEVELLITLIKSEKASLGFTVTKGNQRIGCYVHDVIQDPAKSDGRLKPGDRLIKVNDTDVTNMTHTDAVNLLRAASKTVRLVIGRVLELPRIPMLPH
Nature of the experiment: G' assay.

Sequence of GST-PSD95 PDZ domains 1, 2, 3 (Homo sapiens), P78352 (P78352 62-395): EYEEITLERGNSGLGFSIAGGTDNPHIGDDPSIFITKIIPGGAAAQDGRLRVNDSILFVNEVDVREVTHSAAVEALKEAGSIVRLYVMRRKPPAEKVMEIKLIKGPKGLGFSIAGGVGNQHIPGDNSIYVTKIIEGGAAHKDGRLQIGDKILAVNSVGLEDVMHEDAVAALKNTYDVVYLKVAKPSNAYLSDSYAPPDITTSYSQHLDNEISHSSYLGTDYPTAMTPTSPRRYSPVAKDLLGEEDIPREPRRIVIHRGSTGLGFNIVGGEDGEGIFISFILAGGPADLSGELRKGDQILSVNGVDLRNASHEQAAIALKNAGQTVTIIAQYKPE
T19 sequence (Q96QZ7 other isoform, or with tags, fused parts or gaps): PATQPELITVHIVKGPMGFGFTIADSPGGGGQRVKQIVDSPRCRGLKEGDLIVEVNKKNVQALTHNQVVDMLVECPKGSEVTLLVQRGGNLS
Sequence of GST-KIAA807 [GST: P08515] (P08515 whole entry, the tested form may be a part): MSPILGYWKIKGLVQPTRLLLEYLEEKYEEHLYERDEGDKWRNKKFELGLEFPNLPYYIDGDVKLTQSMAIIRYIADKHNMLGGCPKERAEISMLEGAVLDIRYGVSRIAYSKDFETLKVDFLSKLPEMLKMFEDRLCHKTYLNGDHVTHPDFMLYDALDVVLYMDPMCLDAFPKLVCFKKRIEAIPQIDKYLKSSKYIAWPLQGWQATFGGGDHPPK
Sequence of GST-KIAA0316 PDZ domain 1 (Homo sapiens (Human)), Q14CM0 (Q14CM0 72-159): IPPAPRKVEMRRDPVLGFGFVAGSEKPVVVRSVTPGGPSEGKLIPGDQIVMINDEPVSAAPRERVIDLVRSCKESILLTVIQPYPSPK

For RNEIQSLV (modifications not checked) [unlabeled 8 amino acid peptide corresponding to the C-terminus of CD95], the % binding of labelled 20-mer in experiment [1] was 100%; in experiment [2] it was 75%; in experiment [3] it was 92%; in experiment [4], 87%.
As to MTSSSSVV (modifications not checked) [CLASP-2 8-mer], the % binding of labelled 20-mer in experiment [1] amounted to 90%; in experiment [2], 80%; in [3], 85%; in experiment [4], 82%.
Turning to PPATPSPRLALPAHHNATRL (modifications not checked) [Na+/Pi cotransporter 2], the Classification in experiment [5] worked out at 1 A450 class; in experiment [6], 1 A450 class; in experiment [7] it was 5 A450 class; in experiment [8], 4 A450 class; in experiment [9] it was 2 A450 class; in experiment [10], 1 A450 class. In addition, the Classification in [11] came out at 1 A450 class; in experiment [12], 5 A450 class; in experiment [13] it was 1 A450 class; in experiment [14], 1 A450 class; in experiment [15] it was 5 A450 class; in experiment [16], 1 A450 class. In addition, the Classification was found to be 1 A450 class in [17]; 5 A450 class in [18]; 5 A450 class in experiment [19]; 1 A450 class in experiment [20]; 1 A450 class in experiment [21]; 1 A450 class in experiment [22]. In addition, the figures for the Classification in [23] and in experiment [24] were 1 A450 class and 2 A450 class, respectively.
Consider DTLLLTENEGDKTEEQVSYV (modifications not checked) [serotonin receptor 5HT-2B], for which the Kd in experiment [25] worked out at 2000 nM; in [26], 200 nM. The Classification was found to be 4 A450 class in experiment [27]; 1 A450 class in [7]; 1 A450 class in experiment [28]; 5 A450 class in experiment [29]; 1 A450 class in experiment [30]; 5 A450 class in [31]. The Classification was 1 A450 class in [32]; 2 A450 class in experiment [11]; 1 A450 class in experiment [15]; 2 A450 class in experiment [33]; 1 A450 class in experiment [20]; 1 A450 class in experiment [21].
